Source: patent US20170121397A1 (PROTHENA BIOSCIENCES, published 2017)
Blank lines part the entries; values can stand above or below the binder they belong to. Ends that are not written are not given here.

Columns and labels:
[1] = target: T1, full length human medin (50 aa) (human); test: Biacore SPR, antibody captured on anti-mouse chip, medin as analyte, global 1:1 fit
T1 construct: Synthetic peptide (American Peptide, Cat # 366587 in the Western blot); Monomer and multimer/oligomer bands seen in Western blot; also called medin peptide; full-length human medin peptide
T1 peptide: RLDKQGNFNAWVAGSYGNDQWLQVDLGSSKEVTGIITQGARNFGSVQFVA
Description: Anti-mouse antibody (GE Heathcare) was immobilized on a sensor chip […] (lacking dextran chains) via amine coupling following the instructions provided in the GE Healthcare anti-mouse kit. Anti-medin monoclonal antibodies of interest were then captured on the chip at a level that ensured a maximum binding of analyte at 30-50 RU. Various concentrations of analyte, full-length human medin (50 aa, FIGS. 1A and B) were passed over the captured ligand at 30 ul/min in running buffer (Hepes buffered saline+0.05% P-20, 1 mg/mL BSA) in either 2-fold or 3-fold dilutions, depending on the magnitude of the spanned concentration range. For each concentration, the reaction proceeded for a period of time needed for the higher analyte concentrations to reach equilibrium during association, as well as at least 10% of signal to decay during dissociation. At least one concentration (not the highest or lowest) was run in duplicate. […] The data were doubled referenced to both an irrelevant sensor not containing the medin antibodies and a 0 nM concentration of medin to account for the dissociation of antibodies from the anti-mouse sensor. The data was then analyzed with a global 1:1 fit using the Biacore software.

[2] = target: T2, mouse C-terminal medin peptide (mouse, also: conjugated to OVA in the ELISA); test: direct ELISA, plate coated with mouse C-terminal peptide-OVA at 2.5 ug/mL, goat anti-mouse HRP, ABTS, OD 405 nm
T2 construct: also called mouse c-terminal peptide; mouse C-terminal peptide-OVA
T2 peptide: CGGHIQYVA
Description: (§1) To further characterize antibodies of interest, ELISA titration curves were generated to determine antibody binding to human lactadherin (FIG. 1A, Sino Biological In.), full-length human medin peptide (50 aa, FIGS. 1A and B) or to the human or mouse C-terminal peptides (see FIG. 1B). Plates were coated with full length human medin, human C-terminal peptide-OVA, mouse C-terminal peptide-OVA and lactadherin at 2.5 ug/mL, 50 uL/well and incubated for about 1 hour at room temperature. The plates were then blocked with 1% BSA/PBS at room temperature. After about 15 minutes, plates were emptied and antibodies of interest were then added to the plates and after a 1 hour incubation at room temperature, the plates were washed with wash buffer. The detection antibody, goat anti-mouse antibody conjugated to horseradish peroxidase (Jackson ImmunoResearch) diluted 1:2,000 in 0.5% BSA/PBS/TBS-T was added to plates and incubated for 1 hour at room temperature. Finally, the plates were washed and then incubated with ABTS substrate (Thermo Scientific) for 15 minutes at room temperature to visualize signal and read at 405 nm on a microplate reader.

[3] = target: T3, human lactadherin polypeptide (Sino Biological) (human, UniProt Q08431 24-387); test: direct ELISA, plate coated with human lactadherin at 2.5 ug/mL, goat anti-mouse HRP, ABTS, OD 405 nm
T3 construct: Bought protein; also called MFG-E8; synthetic lactadherin polypeptide
T3 sequence (looked up): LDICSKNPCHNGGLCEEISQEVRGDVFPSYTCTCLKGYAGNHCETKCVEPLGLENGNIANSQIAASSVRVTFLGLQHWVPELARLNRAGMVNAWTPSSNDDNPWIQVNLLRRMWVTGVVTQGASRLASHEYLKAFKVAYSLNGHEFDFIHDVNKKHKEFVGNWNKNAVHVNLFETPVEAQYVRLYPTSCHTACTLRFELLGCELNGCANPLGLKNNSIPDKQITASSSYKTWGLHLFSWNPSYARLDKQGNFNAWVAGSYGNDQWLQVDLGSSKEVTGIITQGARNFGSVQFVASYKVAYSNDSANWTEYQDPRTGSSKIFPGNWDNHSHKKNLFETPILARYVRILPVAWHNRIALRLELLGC
Description: as §1

[4] = target: T1, full length human medin (50 aa); test: direct ELISA, plate coated with full length human medin at 2.5 ug/mL, goat anti-mouse HRP, ABTS, OD 405 nm
Description: as §1

[5] = target: T4, human C-terminal medin peptide (human, also: conjugated to OVA in the ELISA); test: direct ELISA, plate coated with human C-terminal peptide-OVA at 2.5 ug/mL, goat anti-mouse HRP, ABTS, OD 405 nm
T4 construct: also called human c-terminal peptide; human C-terminal peptide-OVA
T4 peptide: CGGSVQFVA
Description: as §1

Kd [1]: 1.04 nM
koff [1]: 0.000951 s⁻¹
kon [1]: 1.11e+06 M⁻¹ s⁻¹
binding result [2]: no binding (tested: 10 ug/ml)
EC50 (read off the curve) [3]: ~0.2 mg/L
EC50 (read off the curve) [4]: ~0.1 mg/L
binding result [5]: no binding (tested: 10 ug/ml)
B1: mouse monoclonal antibody 6B3 (antibody, V domains shown)
VH: QVTLKESGPGILQPSQTLSLTCSFSGFSLSTSDMGVGWIRQPSGKGLEWLAHIWWNDNKYYNIALKNRLTVSKDTSNNQVFLKIASVDTADTATYYCARLVGSWFAYWGQGTLVTVSA
VL: DIQMTQTTSSLSASLGDRVTISCRASQDISNFLSWYHQKPDGTVKLLIYYTSRLHSGVPPRFSGSGSGTDYSLTISNLEQEDIATYFCQQGKTLPPTFGGGTKLEIK
notes: Mouse hybridoma IgG raised against full-length human medin; also called m6B3; PRT6B3

Kd [1]: 12.1 nM
koff [1]: 0.00712 s⁻¹
kon [1]: 590000 M⁻¹ s⁻¹
EC50 (read off the curve) [2]: ~0.05 mg/L
EC50 (read off the curve) [4]: ~0.04 mg/L
EC50 (read off the curve) [5]: ~0.07 mg/L
B2: mouse monoclonal antibody 18G1 (antibody, V domains shown)
VH: EVQLVESGGGLVKPGGSLKLSCAASGFTFSSYAMSWVRQTPEKRLEWVAGISSGDYYTYYPDTVKGRFTISRDNARNTLYLQMRSLRSEDTAMYYCVRGRGNTGPRVGYWGQGTSVTVSS
VL: DIVMTQSQKFMSTSVGDRVSVTCKASQNVGTNVAWYQQKPGQSPKALIYSASYRYSGVPDRFTGSGSGTDFTLTISNVQSEDLAEYFCQQYNSFPLTFGAGTKLELK
notes: Mouse hybridoma IgG raised against the human C-terminal medin peptide; also called m18G1; PRT18G1
